Measurements from patent US20220017622A1 (Pfizer, published 2022).
Where “and” joins values, the source holds several entries; their conditions need not be identical. Equal entries are not always repeated.

Target: T1, human B7-H4 extracellular domain (human, UniProt Q7Z7D3 29-258)
T1 construct: For SPR it says only human B7-H4 ECD; also called Hu B7-H4 ECD; huB7-H4 ECD
T1 sequence: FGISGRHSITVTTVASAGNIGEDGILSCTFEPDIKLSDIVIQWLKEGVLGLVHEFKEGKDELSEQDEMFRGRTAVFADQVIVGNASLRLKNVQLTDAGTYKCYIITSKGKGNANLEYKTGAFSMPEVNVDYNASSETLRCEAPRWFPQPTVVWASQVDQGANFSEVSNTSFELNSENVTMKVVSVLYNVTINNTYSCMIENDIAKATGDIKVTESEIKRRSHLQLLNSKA
Experiment: competition ELISA on coated huB7-H4 ECD; competitor biotinylated 0052 (by series, not given)
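Wherever IC50 is given: tested antibody premixed 1:1 with biotinylated parental antibody, 2 h at room temperature on coated ECD, bound biotin detected via streptavidin-HRP, absorbance read at 450 nm.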

Binder	IC50
B7-H4 antibody 1080 (antibody, human IgG1, kappa, V domains shown) VH: EVQLVESGGGLVQPGGSLRLSCAVSGGSFSGYYWNWIRQPPGKGLEWIGEINHSGSATYNPSLKSRVTISVDTAKNSLYLQMNSLRAEDTAVYYCARGLYNWNVDHWGQGTLVTVSS VL: DIQMTQSPSSLSASVGDRVTITCRASQGIRNDLGWYQQKPGKAPKRLIYAASSLQSGVPSRFSGSGSGTDFTLTISSLQPEDFATYYCLQHNAYPRTFGGGTKVEIKR	1.4 nM
B7-H4 antibody 0350 (antibody, human IgG1, kappa, V domains shown) VH: EVQLVESGGGLVQPGGSLRLSCAVSGGSFSGYYWSWVRQPPGKGLEWIGEINHSGSATYNPSLKSRFTISVDTAKNSFYLQMNSLRAEDTAVYYCARGLYNWNVDHWGQGTLVTVSS VL: DIQMTQSPSSLSASVGDRVTITCRASQGIRNDLGWYQQKPGKAPKRLIYAASSLQSGVPSRFSGSGSGTEFTLTISSLQPEDFATYYCLQHNSYPRTFGGGTKVEIKR	17.6 nM
B7-H4 antibody 0352 (antibody, human IgG1, kappa, V domains shown) VH: EVQLVESGGGLVQPGGSLRLSCAVSGGSFSGYYWNWIRQPPGKGLEWIGEINHSGSATYNPSLKSRFTISVDTAKNSFYLQMNSLRAEDTAVYYCARGLYNWNVDHWGQGTLVTVSS VL: DIQMTQSPSSLSASVGDRVTITCRASQGIRNDLGWYQQKPGKAPKRLIYAASSLQSGVPSRFSGSGSGTEFTLTISSLQPEDFATYYCLQHNSYPRTFGGGTKVEIKR	15.8 nM and 12.9 nM
B7-H4 antibody 0362 (antibody, human IgG1, kappa, V domains shown) VH: EVQLVESGGGLVQPGGSLRLSCAVSGGSFSGYYWNWVRQAPGKGLEWIGEIDHQGSTKYNPSLKSRFTISVDTAKNSFYLQMNSLRAEDTAVYYCARGLYNWNVDHWGQGTLVTVSS VL: DIQMTQSPSSLSASVGDRVTITCRASQGIRNDLGWYQQKPGKAPKRLIYAASSLQSGVPSRFSGSGSGTEFTLTISSLQPEDFATYYCLQHNSYPRTFGGGTKVEIKR	13.5 nM and 17.1 nM
B7-H4 antibody 0364 (antibody, human IgG1, kappa, V domains shown) VH: EVQLVESGGGLVQPGGSLRLSCAVSGGSFSGYYWNWVRQAPGKGLEWIGEINHSGSATYNPSLKSRVTISVDTAKNSFYLQMNSLRAEDTAVYYCARGLYNWNVDHWGQGTLVTVSS VL: DIQMTQSPSSLSASVGDRVTITCRASQGIRNDLGWYQQKPGKAPKRLIYAASSLQSGVPSRFSGSGSGTEFTLTISSLQPEDFATYYCLQHNSYPRTFGGGTKVEIKR	9.13 nM and 10.8 nM
B7-H4 antibody 0368 (antibody, human IgG1, kappa, V domains shown) VH: EVQLVESGGGLVQPGGSLRLSCAASGGSFSGYYWNWVRQAPGKGLEWVAEINHSGSATYNPSLKSRFTISRDTAKNSLYLQMNSLRAEDTAVYYCARGLYNWNVDHWGQGTLVTVSS VL: DIQMTQSPSSLSASVGDRVTITCRASQGIRNDLGWYQQKPGKAPKRLIYAASSLQSGVPSRFSGSGSGTEFTLTISSLQPEDFATYYCLQHNSYPRTFGGGTKVEIKR	8.49 nM and 8.3 nM
B7-H4 antibody 0376 (antibody, human IgG1, kappa, V domains shown) VH: EVQLVESGGGLVQPGGSLRLSCAVSGGSFSGYYWNWVRQAPGKGLEWIGEINHSGSATYVDSVKGRFTISRDTAKNSFYLQMNSLRAEDTAVYYCARGLYNWNVDHWGQGTLVTVSS VL: DIQMTQSPSSLSASVGDRVTITCRASQGIRNDLGWYQQKPGKAPKRLIYAASSLQSGVPSRFSGSGSGTEFTLTISSLQPEDFATYYCLQHNSYPRTFGGGTKVEIKR	12.4 nM
B7-H4 antibody 0380 (antibody, human IgG1, kappa, V domains shown) VH: EVQLVESGGGLVQPGGSLRLSCAVSGGSFSGYYWNWVRQAPGKGLEWIGEINHSGSATYNPSLKSRFTISVDTAKNSFYLQMNSLRAEDTAVYYCARELYNWNVDHWGQGTLVTVSS VL: DIQMTQSPSSLSASVGDRVTITCRASQGIRNDLGWYQQKPGKAPKRLIYAASSLQSGVPSRFSGSGSGTEFTLTISSLQPEDFATYYCLQHNSYPRTFGGGTKVEIKR	13.6 nM and 17.8 nM
B7-H4 antibody 0538 (antibody, human IgG1, kappa, V domains shown) VH: EVQLVESGGGLVQPGGSLRLSCAASGGSFSGYYWNWIRQPPGKGLEWIGEIDHQGSTKYNPSLKSRVTISVDTAKNSLYLQMNSLRAEDTAVYYCARGLYNWNVDHWGQGTLVTVSS VL: DIQMTQSPSSLSASVGDRVTITCRASQGIRNDLGWYQQKPGKAPKRLIYAASSLQSGVPSRFSGSGSGTDFTLTISSLQPEDFATYYCLQHNAYPRTFGGGTKVEIKR	21.9 nM
B7-H4 antibody 0540 (antibody, human IgG1, kappa, V domains shown) VH: EVQLVESGGGLVQPGGSLRLSCAVSGGSFSGYYWNWIRQPPGKGLEWIGEIDHQGSTKYNPSLKSRVTISVDTAKNSLYLQMNSLRAEDTAVYYCARELYNWNVDHWGQGTLVTVSS VL: DIQMTQSPSSLSASVGDRVTITCRASQGIRNDLGWYQQKPGKAPKRLIYAASSLQSGVPSRFSGSGSGTDFTLTISSLQPEDFATYYCLQHNAYPRTFGGGTKVEIKR	30.1 nM

Target: T1, human B7-H4 extracellular domain
Experiment: SPR Biacore 8K 25 C; mAb captured on anti-human Fc, huB7-H4 ECD analyte, 1:1 fit;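 further: antibodies tested as IgG1, running buffer HBS-EP+ at pH 7.4, rate constants and affinity from a 1:1 Langmuir model fit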

Binder	Kd [nM]	koff [s⁻¹]	kon [M⁻¹ s⁻¹]
B7-H4 antibody 0057 (antibody, human IgG1, kappa, V domains shown, also called 34A3) VH: EVQLLESGGGLVQPGGSLRLSCAASGFTFSSYAMSWVRQAPGKGLEWVSAISGRGGSTYYTDSVKGRFTISRDNSRNTLYLQMNILRAEDTAVYYCARDLQWFGESTLFDYWGQGTLVTVSS VL: DIQLTQSPSTLSASVGDRVTITCRASQSISAWLAWFQQKPGKAPKLLIYKASSLESGVPSRFSGSGSGTEFTLTISSLQPDDFATYYCQQYNSYSRSFGQGTKLEIKR	7.92	0.000508	64100
B7-H4 antibody 0048 (antibody, human IgG1, kappa, V domains shown, also called 11F12) VH: EVQLLESGGGLVQPGGSLRLSCAASGFTFSSYAMKWVRQAPGKGLEWVSTTSGSGGTTYYADSVKGRFTISRDNSKNTLYLQMNSLRAEDTAVYYCAKAGWAAAFDYWGQGTLVTVSS VL: DIQLTQFPSTLSASVGDRITITCRASQSISDWLAWYQQKPGKAPKLLIYKASSLESGVPSRFSGSGSGTEFTLTISSLQPDDFATYYCQQCNSYWTFGQGTKVEIKR	0.83	0.000619	745000
B7-H4 antibody 0049 (antibody, human IgG1, kappa, V domains shown, also called 13F4) VH: EVQLLESGGGLVQPGGSLRLSCAASGFTFSSYAMSWVRQAPGKGLEWVSAISGSGGSTYYADSVKGRFTISRDNSKNTLFLHMNSLRAEDTAVYYCARDIQWFGESVFDYWGQGTLVTVSS VL: DIQMTQSPSTLSASVGDRVTITCRASQSISSWLAWYQQKPGKAPKLLIYKASSLESGVPSRFSGNGSGTEFTLTISSLQPDDLATYYCQYYNSYSRTFGQGTKVEIKR	1.85	0.000414	225000
B7-H4 antibody 0051 (antibody, human IgG1, kappa, V domains shown, also called 27C12) VH: EVQLLESGGGLVQPGGSLRLSCAASGFTFSSYAMSWVRQAPGKGLEWVSSISGNGGSTYYADSVKGRFTISRDNSKNTLSLQMNSLRAEDTAVYYCAKVGWRTGDYWGQGTLVTVSS VL: DIQLTQSPSTLSASVGDRVTITCRASQSISSWLAWYQQKAGKAPKLLIYKASDLESGVPSRFSGSGSGIEFTLTISSLQPDDFATYYCQQYNSYSWTFGQGTKVEIKR	0.57	0.000464	814000
B7-H4 antibody 0052 (antibody, human IgG1, kappa, V domains shown, also called 28D10) VH: QVQLQQWGAGLLKPSETLSLTCAVYGGSFSGYYWNWIRQPPGKGLEWIGEINHSGSTKYNPSLKSRVTISGDTSKNQFSLKLNSVTAADTAVYYCVRGLYNWNVDSWGQGTLVTVSS VL: DIQMTQSPSSLSASVGDRVTITCRASQGIRNDLGWYQQKPGKAPKRLIYVASSLQSGVPSRFSGSGSGTEFTLTISSLQPEDFATYYCLQHNSYPYTFGQGTKLEIKR	7.83	0.0011	140000
B7-H4 antibody 0053 (antibody, human IgG1, kappa, V domains shown, also called 29G6) VH: QVQLQQWGAGLLKPSETLSLTCAVYGGPFSGYFWSWIRQPPGKGLEWIGEINHSGNTNYNPSLKSRVTISVDTSKNQFSLKLSSVTAADTAVYYCARAGGDYGFYYYYGMDVWGQGTTVTVSS VL: DIQLTQSPSTLSASVGDRVTITCRASQSISSWLAWYQQKPGKAPELLVYKASRLESGVPSRFSGSGSGTEFTLTISSLQPDDFATYYCQQYNSYFGGGTKVEIKR	0.74	0.000321	434000
B7-H4 antibody 0061 (antibody, human IgG1, kappa, V domains shown, also called 46E10) VH: QVQLQQWGAGLLKPSETLSLTCAVYGGSFSGYFWSWIRQPPGKGLEWIGEFNHSGGTNSNPSLKSRVTMSVDTSKNQFSLKLSSVTAADTAVYFCARAGGDYGFYYYYGLDVWGQGTTVTVSS VL: DIQLTQSPSTLSASVGDRVTITCRASQSISSWLAWYQQKPGKAPELLVYKASRLESGVPSRFSGSGSGTEFTLTISSLQPDDFATYYCQQYNSYFGGGTKVEIKR	0.84	0.000572	678000
B7-H4 antibody 0055 (antibody, human IgG1, kappa, V domains shown, also called 32F3) VH: QVQLQESGPGLVKPSETLSLTCTVSGGSISSSSYYWGWIRQPPGKGLEWIGTIYFSGNTYYNPSLKSRVTISVDTSKSQLSLKLNSVTAADTAVYYCARLRVTMVRGVIIGVFDYWGQGTLVTVSS VL: not shown	1.9	0.000725	382000
B7-H4 antibody 0060 (antibody, human IgG1, kappa, V domains shown, also called 42E2) VH: QVQLQESGPGLVKPSETLSLTCTVSTGSISSSSYYWGWIRQPPGKGLEWIGTIYFSGSTYYNPSLKSRVTISVDTSKNQFSLKLTSVTAADTAVYYCARLRVTMVRGVIIGVFDFWGQGTLVTVSS VL: not shown	1.35	0.00075	558000
B7-H4 antibody 0056 (antibody, human IgG1, kappa, V domains shown, also called 33G4) VH: EVQLLESGGGLVQPGGSLRLSCAASGFTFSTYAMNWVRQAPGKGLAWVSAISGSGGSTYYADSVKGRFTISRDDSKNTLYLQMNSLRAEDTAVYYCAKVDVVARYYGMDVWGQGTTVTVSS VL: DIQMTQSPSTLSASVGDRVTITCRASQSISGWLAWYQQKPGKAPKLLIYEASSLESGVPSRFSGSGSGTEFTLTISSLQPDDFATYYCQQYKSYSWTFGQGTKVEIKR	0.62	0.000353	574000
B7-H4 antibody 0059 (antibody, human IgG1, kappa, V domains shown, also called 47A1) VH: EVQLLESGGGLVQPGGSLRLSCAASGFTFSSYALSWVRQAPGKGLEWVSTINVGGVDTNYAGSVKGRFTISRDNPKNTLCLQMNSLRAEDTAVYHCAKARITMVRGVIIPLFDYWGQGTLVTVAS VL: not shown	0.68	0.000389	568000
